Measurements from PMC11193222, “The serine-rich repeat glycoprotein Srr2 mediates Streptococcus agalactiae interaction with host fibronectin” (BMC Microbiology, 2024).

B1: recombinant Srr2 binding region (rSrr2-BR) (domain or fragment)
chain: EAATTARVQPRAMRVVSSASDMETLPAALISGEGDVTTVQGQDVTDKLQNLDIKLSGGVQAKAGVINMDKSESMHMSLKFTIDSVNRGDTFEIKLSDNIDTNGASNYSIVEPIKSPTGEVYATGIYDSQKKSIVYSFTDFAASKNNINGILDIPLWPDDTTVQNTKEDVLFSVKIKDQEATIKETVKYDPPVRIDFAGGVSVDSRITNIDDVGKKMTYISQINVDGKSLYNYNGLYTRIYNYSKESTADLKNSTIKIYKTTSDNIVESMVQDYSSMEDVTSKFANSYPEKGWYDIYWGQFIASNETYVIVVETPFTNAVTLNTTLSDYNENNGVEHNHTYSSESGYSDVNAQ

Tests used:
[1] = biological target: recombinant Srr2 binding region (rSrr2-BR) (Streptococcus agalactiae (GBS) strain BM110) (UniProt Q3S2Y8); assay: SPR; rSrr2 proteins amine-coupled to a CM5 chip (Biacore X-100); Fn injected; 25 °C, HEPES-EP+ pH 7.4, 0.15 M NaCl, 30 uL/min; steady-state fit, 1:1 model
[2] = biological target: recombinant Srr2 binding region (rSrr2-BR) (Streptococcus agalactiae (GBS) strain BM110) (UniProt Q3S2Y8); assay: ELISA; Srr2 proteins coated on microtiter wells (1 ug/well, 0.1 M sodium carbonate pH 9.5); soluble Fn (up to 240 nM) or Fbg (up to 7.5 nM) for 1 h; detected with mouse anti-Fn or anti-Fbg IgG; apparent Kd; in a further set increasing NaCl (0 to 1 M) strongly impaired the binding to rSrr2-BR
[3] = biological target: human plasma fibronectin (Fn) (human); assay: ELISA; apparent; soluble Srr2-BR on immobilized Fn
human fibrinogen (Fbg) = human fibrinogen (Fbg) (human, UniProt P02671 36-866); P02675 45-491; P02679 27-453, Plasma-derived, disulfide-linked hexamer, glycosylated. Chains are the circulating forms by convention: A-alpha 610 aa, B-beta 461 aa, gamma-A 411 aa (the canonical P02679 sequence is gamma-B, so gamm); assay: ELISA; Srr2 proteins coated on microtiter wells (1 ug/well, 0.1 M sodium carbonate pH 9.5); soluble Fn (up to 240 nM) or Fbg (up to 7.5 nM) for 1 h; detected with mouse anti-Fn or anti-Fbg IgG; apparent Kd; in a further set increasing NaCl (0 to 1 M) strongly impaired the binding to rSrr2-BR; settings: both partners purified

Sequence of human plasma fibronectin (Fn) (human) (P02751 other isoform, or with tags, fused parts or gaps, chain 1 of 2): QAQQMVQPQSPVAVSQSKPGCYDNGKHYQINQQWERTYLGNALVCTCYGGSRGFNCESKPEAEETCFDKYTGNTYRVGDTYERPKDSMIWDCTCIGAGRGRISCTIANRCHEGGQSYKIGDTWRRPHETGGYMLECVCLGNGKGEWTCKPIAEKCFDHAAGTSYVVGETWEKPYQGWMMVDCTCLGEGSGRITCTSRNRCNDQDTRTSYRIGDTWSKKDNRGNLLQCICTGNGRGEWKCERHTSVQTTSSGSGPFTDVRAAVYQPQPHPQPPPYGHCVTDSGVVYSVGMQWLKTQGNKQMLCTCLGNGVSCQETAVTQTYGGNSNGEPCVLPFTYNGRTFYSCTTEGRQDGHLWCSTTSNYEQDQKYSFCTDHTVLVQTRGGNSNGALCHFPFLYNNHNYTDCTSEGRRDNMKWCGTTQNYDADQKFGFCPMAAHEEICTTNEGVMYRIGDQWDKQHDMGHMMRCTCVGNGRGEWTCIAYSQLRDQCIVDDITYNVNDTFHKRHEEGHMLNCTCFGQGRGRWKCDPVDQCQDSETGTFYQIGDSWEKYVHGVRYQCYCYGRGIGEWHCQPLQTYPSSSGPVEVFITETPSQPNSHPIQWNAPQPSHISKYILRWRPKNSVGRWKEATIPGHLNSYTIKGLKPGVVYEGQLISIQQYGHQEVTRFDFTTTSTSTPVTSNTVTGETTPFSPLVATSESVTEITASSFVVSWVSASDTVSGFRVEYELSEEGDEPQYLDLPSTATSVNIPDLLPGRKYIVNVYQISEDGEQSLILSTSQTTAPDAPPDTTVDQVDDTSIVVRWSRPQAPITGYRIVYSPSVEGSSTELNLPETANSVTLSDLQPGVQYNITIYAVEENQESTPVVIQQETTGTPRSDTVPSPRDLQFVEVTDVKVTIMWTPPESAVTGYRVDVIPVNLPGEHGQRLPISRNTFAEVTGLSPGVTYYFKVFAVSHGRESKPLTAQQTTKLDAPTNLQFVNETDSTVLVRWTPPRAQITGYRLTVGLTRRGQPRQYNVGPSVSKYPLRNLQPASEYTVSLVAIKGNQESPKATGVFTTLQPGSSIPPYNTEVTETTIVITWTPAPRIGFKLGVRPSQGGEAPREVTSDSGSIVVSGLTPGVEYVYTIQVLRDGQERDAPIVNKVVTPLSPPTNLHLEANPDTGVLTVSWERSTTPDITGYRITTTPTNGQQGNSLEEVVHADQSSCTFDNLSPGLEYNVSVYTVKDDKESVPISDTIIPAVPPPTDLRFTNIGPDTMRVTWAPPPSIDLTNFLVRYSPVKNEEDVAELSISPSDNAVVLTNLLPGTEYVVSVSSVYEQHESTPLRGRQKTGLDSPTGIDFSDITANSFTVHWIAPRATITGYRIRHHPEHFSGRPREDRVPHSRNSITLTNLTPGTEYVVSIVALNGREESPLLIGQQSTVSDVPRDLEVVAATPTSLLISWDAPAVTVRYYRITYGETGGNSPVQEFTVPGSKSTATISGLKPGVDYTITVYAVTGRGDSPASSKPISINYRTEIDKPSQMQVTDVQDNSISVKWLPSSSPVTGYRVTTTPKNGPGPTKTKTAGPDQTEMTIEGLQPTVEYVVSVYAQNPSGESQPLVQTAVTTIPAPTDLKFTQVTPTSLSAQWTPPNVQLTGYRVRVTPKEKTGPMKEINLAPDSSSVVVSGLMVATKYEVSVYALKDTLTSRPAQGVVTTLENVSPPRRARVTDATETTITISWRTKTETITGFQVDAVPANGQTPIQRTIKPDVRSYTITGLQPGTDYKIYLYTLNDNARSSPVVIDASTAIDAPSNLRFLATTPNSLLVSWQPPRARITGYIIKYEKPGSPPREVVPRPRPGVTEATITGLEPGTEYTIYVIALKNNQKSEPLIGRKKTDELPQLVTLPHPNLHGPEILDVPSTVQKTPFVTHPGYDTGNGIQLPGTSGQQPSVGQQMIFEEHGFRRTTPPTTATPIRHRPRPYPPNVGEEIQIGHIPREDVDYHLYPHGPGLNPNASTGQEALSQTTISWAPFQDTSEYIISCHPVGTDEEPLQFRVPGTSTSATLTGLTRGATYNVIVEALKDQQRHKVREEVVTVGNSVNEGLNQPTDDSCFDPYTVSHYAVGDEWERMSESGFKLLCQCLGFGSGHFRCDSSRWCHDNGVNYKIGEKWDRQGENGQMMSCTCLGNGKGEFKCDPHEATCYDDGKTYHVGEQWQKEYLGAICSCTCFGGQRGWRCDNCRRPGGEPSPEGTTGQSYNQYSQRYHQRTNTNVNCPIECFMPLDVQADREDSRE
Sequence of human plasma fibronectin (Fn) (human) (P02751 other isoform, or with tags, fused parts or gaps, chain 2 of 2): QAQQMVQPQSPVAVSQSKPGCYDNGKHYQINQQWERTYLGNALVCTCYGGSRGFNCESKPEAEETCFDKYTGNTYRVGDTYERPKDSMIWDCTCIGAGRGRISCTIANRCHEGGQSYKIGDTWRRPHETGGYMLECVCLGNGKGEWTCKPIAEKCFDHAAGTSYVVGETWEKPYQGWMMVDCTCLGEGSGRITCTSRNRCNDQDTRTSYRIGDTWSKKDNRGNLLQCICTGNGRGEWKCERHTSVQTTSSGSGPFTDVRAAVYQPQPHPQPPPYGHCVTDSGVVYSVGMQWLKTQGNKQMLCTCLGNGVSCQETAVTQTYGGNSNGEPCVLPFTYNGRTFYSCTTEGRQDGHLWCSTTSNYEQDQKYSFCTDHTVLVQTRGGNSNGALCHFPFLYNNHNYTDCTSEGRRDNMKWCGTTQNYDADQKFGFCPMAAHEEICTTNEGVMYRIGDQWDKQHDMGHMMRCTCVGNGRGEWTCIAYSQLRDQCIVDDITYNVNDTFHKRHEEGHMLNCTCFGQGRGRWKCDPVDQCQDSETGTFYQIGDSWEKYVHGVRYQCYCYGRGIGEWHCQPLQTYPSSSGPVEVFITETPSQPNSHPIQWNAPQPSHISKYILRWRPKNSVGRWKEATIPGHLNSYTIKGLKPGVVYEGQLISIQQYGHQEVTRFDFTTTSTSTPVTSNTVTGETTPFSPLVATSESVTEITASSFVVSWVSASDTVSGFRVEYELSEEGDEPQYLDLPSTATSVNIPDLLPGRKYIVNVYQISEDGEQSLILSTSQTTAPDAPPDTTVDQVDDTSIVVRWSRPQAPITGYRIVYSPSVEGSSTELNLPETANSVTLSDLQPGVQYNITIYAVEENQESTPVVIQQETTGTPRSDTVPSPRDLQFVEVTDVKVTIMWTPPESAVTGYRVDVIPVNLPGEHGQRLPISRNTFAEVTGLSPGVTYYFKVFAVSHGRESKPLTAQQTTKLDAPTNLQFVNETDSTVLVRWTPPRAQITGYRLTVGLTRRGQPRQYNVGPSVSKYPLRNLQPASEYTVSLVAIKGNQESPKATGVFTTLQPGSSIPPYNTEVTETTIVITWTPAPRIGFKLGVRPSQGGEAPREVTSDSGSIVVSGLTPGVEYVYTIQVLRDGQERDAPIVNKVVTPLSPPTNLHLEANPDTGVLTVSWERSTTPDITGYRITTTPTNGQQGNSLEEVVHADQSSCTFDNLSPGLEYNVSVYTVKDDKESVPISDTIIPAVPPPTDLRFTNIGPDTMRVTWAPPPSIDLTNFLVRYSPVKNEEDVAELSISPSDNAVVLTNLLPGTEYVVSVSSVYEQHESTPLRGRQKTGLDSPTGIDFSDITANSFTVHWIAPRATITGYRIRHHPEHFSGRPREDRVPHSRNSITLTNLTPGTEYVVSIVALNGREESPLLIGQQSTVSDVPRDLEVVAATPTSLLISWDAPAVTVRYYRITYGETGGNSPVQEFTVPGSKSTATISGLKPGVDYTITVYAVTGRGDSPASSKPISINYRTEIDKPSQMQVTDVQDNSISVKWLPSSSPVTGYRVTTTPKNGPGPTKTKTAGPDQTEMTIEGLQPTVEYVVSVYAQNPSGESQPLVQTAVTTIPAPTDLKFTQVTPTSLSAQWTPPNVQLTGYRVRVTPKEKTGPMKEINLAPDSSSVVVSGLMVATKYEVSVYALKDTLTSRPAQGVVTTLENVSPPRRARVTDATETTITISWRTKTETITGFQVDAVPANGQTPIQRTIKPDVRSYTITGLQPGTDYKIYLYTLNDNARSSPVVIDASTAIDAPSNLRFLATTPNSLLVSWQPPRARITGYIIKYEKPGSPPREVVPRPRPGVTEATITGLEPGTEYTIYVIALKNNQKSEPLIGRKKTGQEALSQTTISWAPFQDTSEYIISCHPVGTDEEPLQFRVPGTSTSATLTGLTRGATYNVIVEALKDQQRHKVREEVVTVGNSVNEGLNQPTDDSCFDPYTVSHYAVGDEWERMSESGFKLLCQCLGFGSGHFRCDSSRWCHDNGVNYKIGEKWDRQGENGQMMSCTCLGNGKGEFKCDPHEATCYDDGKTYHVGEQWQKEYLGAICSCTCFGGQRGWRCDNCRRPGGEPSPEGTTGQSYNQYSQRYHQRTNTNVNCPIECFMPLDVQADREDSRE

Molecule	Kd [1]	Kd [2]	Kd [3]	Kd (human fibrinogen (Fbg))
human plasma fibronectin (Fn) (natural protein)	92 nM	30 nM		
B1			629 nM	0.45 ± 0.02 nM
